Reference: article PMC11864197 (Science Advances, 2025)
Each block holds one binder with its values, some of them ahead of it.

Columns and labels:
[1] = target: Full-length DDB1-DET1-DDA1 complex co-expressed with Ube2e2 (human, UniProt Q7L5Y6;Q16531;Q9BW61); test: SEC
[2] = target: the molecule itself; test: multiple angle light scattering
DDA1 = DDA1 (human, UniProt Q9BW61 1-102); test: cryo-EM structure

Chain of Full-length DDB1-DET1-DDA1 complex co-expressed with Ube2e2 (Q7L5Y6 whole entry, one chain of several): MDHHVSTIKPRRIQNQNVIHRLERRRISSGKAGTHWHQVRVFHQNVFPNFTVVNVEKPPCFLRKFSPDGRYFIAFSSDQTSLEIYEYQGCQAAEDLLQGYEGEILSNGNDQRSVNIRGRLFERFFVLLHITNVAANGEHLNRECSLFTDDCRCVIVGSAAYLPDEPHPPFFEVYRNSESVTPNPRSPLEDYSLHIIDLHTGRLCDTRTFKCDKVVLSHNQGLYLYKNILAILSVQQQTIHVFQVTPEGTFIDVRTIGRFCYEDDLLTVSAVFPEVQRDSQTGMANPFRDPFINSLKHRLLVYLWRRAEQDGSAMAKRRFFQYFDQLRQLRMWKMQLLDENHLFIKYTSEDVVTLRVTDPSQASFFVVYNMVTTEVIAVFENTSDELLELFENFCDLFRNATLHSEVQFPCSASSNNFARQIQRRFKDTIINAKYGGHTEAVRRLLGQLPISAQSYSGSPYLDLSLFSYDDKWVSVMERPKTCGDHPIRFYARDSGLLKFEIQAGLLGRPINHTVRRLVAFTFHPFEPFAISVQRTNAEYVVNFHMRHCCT

binding result [1]: binds
B1: Full-length Ube2e2 co-expressed with the DDD complex (enzyme)
chain: MSTEAQRVDDSPSTSGGSSDGDQRESVQQEPEREQVQPKKKEGKISSKTAAKLSTSAKRIQKELAEITLDPPPNCSAGPKGDNIYEWRSTILGPPGSVYEGGVFFLDITFSPDYPFKPPKVTFRTRIYHCNINSQGVICLDILKDNWSPALTISKVLLSICSLLTDCNPADPLVGSIATQYMTNRAEHDRMARQWTKRYAT

B2: COP1 RING domain (residues 126 to 208) (domain or fragment)
chain: SYEDKSNDFVCPICFDMIEEAYMTKCGHSFCYKCIHQSLEDNNRCPKCNYVVDNIDHLYPNFLVNELILKQKQRFEEKRFKLD
stoichiometry N [2]: 2

binding result (DDA1): binds
B3: DDB1(ΔBPB) (natural protein)
chain: MSYNYVVTAQKPTAVNGCVTGHFTSAEDLNLLIAKNTRLEIYVVTAEGLRPVKEVGMYGKIAVMELFRPKGESKDLLFILTAKYNACILEYKQSGESIDIITRAHGNVQDRIGRPSETGIIGIIDPECRMIGLRLYDGLFKVIPLDRDNKELKAFNIRLEELHVIDVKFLYGCQAPTICFVYQDPQGRHVKTYEVSLREKEFNKGPWKQENVEAEASMVIAVPEPFGGAIIIGQESITYHNGDKYLAIAPPIIKQSTIVCHNRVDPNGSRYLLGDMEGRLFMLLLEKEEQMDGTVTLKDLRVELLGETSIAECLTYLDNGVVFVGSRLGDSQLVKLNVDSNEQGSYVVAMETFTNLGPIVDMCVVDLERQGQGQLVTCSGAFKEGSLRIIRNGIGIQKLHIRTVPLYESPRKICYQEVSQCFGVLSSRIEVQDTSGGTTALRPSASTQALSSSVSSSKLFSSSTAPHETSFGEEVEVHNLLIIDQHTFEVLHAHQFLQNEYALSLVSCKLGKDPNTYFIVGTAMVYPEEAEPKQGRIVVFQYSDGKLQTVAEKEVKGAVYSMVEFNGKLLASINSTVRLYEWTTEKELRTECNHYNNIMALYLKTKGDFILVGDLMRSVLLLAYKPMEGNFEEIARDFNPNWMSAVEILDDDNFLGAENAFNLFVCQKDSAATTDEERQHLQEVGLFHLGEFVNVFCHGSLVMQNLGETSTPTQGSVLFGTVNGMIGLVTSLSESWYNLLLDMQNRLNKVIKSVGKIEHSFWRSFHTERKTEPATGFIDGDLIESFLDISRPKMQEVVANLQYDDGSGMKREATADDLIKVVEELTRIH
